Results as given in article PMC4667630, “Localized reconstruction of subunits from electron cryomicroscopy images of macromolecular complexes” (Nature Communications, 2015).

B1: bacteriophage φ6 P2 RNA-dependent RNA polymerase (enzyme)
chain: PRRAPAFPLSDIKAQMLFANNIKAQQASKRSFKEGAIETYEGLLSVDPRFLSFKNELSRYLTDHFPANVDEYGRVYGNGVRTNFFGMRHMNGFPMIPATWPLASNLKKRADADLADGPVSERDNLLFRAAVRLMFSDLEPVPLKIRKGSSTCIPYFSNDMGTKIEIAERALEKAEEAGNLMLQGKFDDAYQLHQMGGAYYVVYRAQSTDAITLDPKTGKFVSKDRMVADFEYAVTGGEQGSLFAASKDASRLKEQYGIDVPDGFFCERRRTAMGGPFALNAPIMAVAQPVRNKIYSKYAYTFHHTTRLNKEEKVKEWSLCVATDVSDHDTFWPGWLRDLICDELLNMGYAPWWVKLFETSLKLPVYVGAPAPEQGHTLLGDPSNPDLEVGLSSGQGATDLMGTLLMSITYLVMQLDHTAPHLNSRIKDMPSACRFLDSYWQGHEEIRQISKSDDAILGWTKGRALVGGHRLFEMLKEGKVNPSPYMKISYEHGGAFLGDILLYDSRREPGSAIFVGNINSMLNNQFSPEYGVQSGVRDRSKRKRPFPGLAWASMKDTYGACPIYSDVLEAIERCWWNAFGESYRAYREDMLKRDTLELSRYVASMARQAGLAELTPIDLEVLADPNKLQYKWTEADVSANIHEVLMHGVSVEKTERFLRSVMPR
notes: P2, RNA-dependent RNA polymerase of bacteriophage φ6, 75 kDa, monomeric; X-ray structure PDB 1HHS was fitted into the density; also called P2 polymerase; source: self-assembled in vitro into P124 particles
B2: bacteriophage φ6 protein P1 (natural protein, UniProt P11126 1-769, looked up)
chain: MFNLKVKDLNGSARGLTQAFAIGELKNQLSVGALQLPLQFTRTFSASMTSELLWEVGKGNIDPVMYARLFFQYAQAGGALSVDELVNQFTEYHQSTACNPEIWRKLTAYITGSSNRAIKADAVGKVPPTAILEQLRTLAPSEHELFHHITTDFVCHVLSPLGFILPDAAYVYRVGRTATYPNFYALVDCVRASDLRRMLTALSSVDSKMLQATFKAKGALAPALISQHLANAATTAFERSRGNFDANAVVSSVLTILGRLWSPSTPKELDPSARLRNTNGIDQLRSNLALFIAYQDMVKQRGRAEVIFSDEELSSTIIPWFIEAMSEVSPFKLRPINETTSYIGQTSAIDHMGQPSHVVVYEDWQFAKEITAFTPVKLANNSNQRFLDVEPGISDRMSATLAPIGNTFAVSAFVKNRTAVYEAVSQRGTVNSNGAEMTLGFPSVVERDYALDRDPMVAIAALRTGIVDESLEARASNDLKRSMFNYYAAVMHYAVAHNPEVVVSEHQGVAAEQGSLYLVWNVRTELRIPVGYNAIEGGSIRTPEPLEAIAYNKPIQPSEVLQAKVLDLANHTTSIHIWPWHEASTEFAYEDAYSVTIRNKRYTAEVKEFELLGLGQRRERVRILKPTVAHAIIQMWYSWFVEDDRTLAAARRTSRDDAEKLAIDGRRMQNAVTLLRKIEMIGTTGIGASAVHLAQSRIVDQMAGRGLIDDSSDLHVGINRHRIRIWAGLAVLQMMGLLSRSEAEALTKVLGDSNALGMVVATTDIDPSL
notes: P1, major shell protein of the bacteriophage φ6 polymerase complex; atomic structure PDB 4K7H was fitted into the capsid map; also called P1 shell; source: self-assembled in vitro into P124 particles; copies: 120

Experiments:
[1] = molecular target: rotavirus triple-layered particle, non-VP4 protein components (rotavirus (strain not stated)) (UniProt P12476); assay: cryo-EM structure; rotavirus triple-layered particles, previously published data set (ref. 15); icosahedral reconstruction, subtraction of non-VP4 components, localized reconstruction and 3D classification of VP4 sub-particles
Chain of rotavirus triple-layered particle, non-VP4 protein components (rotavirus (strain not stated)) (P12476 whole entry, looked up): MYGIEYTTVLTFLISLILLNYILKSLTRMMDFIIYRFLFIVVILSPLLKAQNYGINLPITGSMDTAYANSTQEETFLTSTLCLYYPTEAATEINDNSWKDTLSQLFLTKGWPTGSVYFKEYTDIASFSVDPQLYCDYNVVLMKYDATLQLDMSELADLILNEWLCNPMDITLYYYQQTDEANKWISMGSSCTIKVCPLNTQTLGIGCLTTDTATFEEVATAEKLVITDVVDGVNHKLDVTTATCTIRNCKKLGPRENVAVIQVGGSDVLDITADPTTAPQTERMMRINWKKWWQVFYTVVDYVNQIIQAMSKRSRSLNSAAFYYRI

[2] = molecular target: B2; assay: cryo-EM structure; φ6 P124 particles self-assembled in vitro from purified P1, P2 and P4 (molar ratio 120:120:72, 6% PEG 4000, room temperature, 90 min), separated by rate-zonal sucrose gradient centrifugation, 20 mM Tris pH 8.0; icosahedral reconstruction and localized reconstruction with 3D classification of sub-particles at the threefold axes; conditions: both partners purified
[3] = molecular target: the molecule itself; assay: as above

“rotavirus viral protein VP4 (from UniProt P12473 1-776) (natural protein)” was tested, and the occupancy of VP4 [1] was 60 to 70%.

B1 was tested, and the “stoichiometry N” value [2] was ~12 copies of P2 per particle.

B2: binds [3].
